Reference: patent US20050227306

How the values were obtained:
[1] = tested on: His6-tetraCys-X-MBP protease substrate 25-F [MBP: P0AEX9]
[2] = tested on: His6-tetraCys-X-MBP protease substrate 26-F [MBP: P0AEX9]
[3] = tested on: His6-tetraCys-X-MBP protease substrate 21-F [MBP: P0AEX9]
[4] = tested on: His6-tetraCys-X-MBP protease substrate 24-F [MBP: P0AEX9]
[5] = tested on: His6-tetraCys-X-MBP protease substrate 22-F [MBP: P0AEX9]
[6] = tested on: His6-tetraCys-X-MBP protease substrate 23-F [MBP: P0AEX9]

Row | Substance | relative rate of reaction (initial proteolysis rate by fluorescence anisotropy, normalised to the cognate substrate) (relative rate) [1] | relative rate of reaction (initial proteolysis rate by fluorescence anisotropy, normalised to the cognate substrate) [2] | relative rate of reaction (initial proteolysis rate by fluorescence anisotropy, normalised to the cognate substrate) (relative rate) [3] | relative rate of reaction (initial proteolysis rate by fluorescence anisotropy, normalised to the cognate substrate) (relative rate) [4] | relative rate of reaction (initial proteolysis rate by fluorescence anisotropy, normalised to the cognate substrate) (relative rate) [5] | specific reaction rate (slope of initial proteolysis rate versus protease concentration) [5] | relative rate of reaction (initial proteolysis rate by fluorescence anisotropy, normalised to the cognate substrate) (relative rate) [6] | relative rate of reaction (initial proteolysis rate by fluorescence anisotropy, normalised to the cognate substrate) [1] | relative rate of reaction (initial proteolysis rate by fluorescence anisotropy, normalised to the cognate substrate) (relative rate) [2] | specific reaction rate (per supplier's unit of enzyme) [6] | specific reaction rate (per supplier's unit of enzyme) [1] | specific reaction rate (slope of initial proteolysis rate versus protease concentration) [1] | SDS-PAGE with Coomassie staining after overnight incubation [1] | SDS-PAGE with Coomassie staining after overnight incubation [3] | SDS-PAGE with Coomassie staining after overnight incubation [4] | specific reaction rate (per supplier's unit of enzyme) [4] | SDS-PAGE with Coomassie staining after overnight incubation [5] | SDS-PAGE with Coomassie staining after overnight incubation [6]
1 | Trypsin | 0.5 | n.d. (not detected) | 0.3 | 0.4 | 1 | trypsin; 760±60 | 0.1 | – | – | – | – | – | – | – | – | – | – | –
2 | Enterokinase | – | – | 0.5 | 0.2 | 1.3 | – | 1 | n.d. (not detected) | 1 | enterokinase, 0.130±0.007 | – | – | – | – | – | – | – | –
3 | Thrombin | 1 | – | 0 | 0 | 0.4 | – | -0.02 | – | 0 | – | thrombin, 0.20±0.02 | thrombin; 240±20 | – | – | – | – | – | –
4 | Factor Xa | 0.05 | – | 0.04 | 1 | 0.5 | – | 0.01 | – | 0 | – | – | – | formation of a small amount of a small molecular-weight band | formation of a small amount of a small molecular-weight band | little or no intact fusion protein was detected after an overnight incubation | Factor Xa, 0.37±0.03 | little or no intact fusion protein was detected after an overnight incubation | formation of a small amount of a small molecular-weight band
